Measured values reported in patent US20050065327A1.

Columns and labels:
[1] = target: native (naturally occurring) human IL-13 released from HDLM-2 cells (human) (UniProt P35225); assay: cell-based or functional assay
[2] = target: human IL-13 (recombinant, bacterially derived, Peprotech) (human) (UniProt P35225); assay: cell-based or functional assay
Sequence of human IL-13 (recombinant, bacterially derived, Peprotech) (human) (P35225 other isoform, or with tags, fused parts or gaps): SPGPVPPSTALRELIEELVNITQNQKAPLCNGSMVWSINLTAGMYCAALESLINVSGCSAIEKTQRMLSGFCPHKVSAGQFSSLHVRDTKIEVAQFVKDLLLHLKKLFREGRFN

Sequence of native (naturally occurring) human IL-13 released from HDLM-2 cells (human) (P35225 other isoform, or with tags, fused parts or gaps): as above

IC50, HDLM-2 cell proliferation assay [1] [pM]	IC50, TF-1 cell proliferation assay [2] [pM]	IC50, eotaxin release from NHLF [2] [pM]	Substance
16700	1020	219	B-B13 (commercial anti-human IL-13 antibody, mouse IgG1, Euroclone)
10700	471	623	JES10-5A2 (commercial anti-human IL-13 antibody, rat IgG1, Biosource)
